Test results taken from PMC12164381 (mAbs, 2025).
Substitutions are numbered along the chain they refer to.

B1: S2K146 (antibody, V domains shown)
VH: QVQLVESGGVVVQPGGSLRLSCAASGFTFHDHTMHWVRQAPGKGLEWVSLITWNGGTIHYSDSVKGRFTISRDNSKNSLYLQMNSLRTEDTALYYCAKDLGRGGWYLPSDAWGQGTLVTVSS
VL: not shown
B2: LY-CoV1404 (antibody, V domains shown)
VH: QITLKESGPTLVKPTQTLTLTCTFSGFSLSISGVGVGWLRQPPGKALEWLALIYWDDDKRYSPSLKSRLTISKDTSKNQVVLKMTNIDPVDTATYYCAHHSISTIFDHWGQGTLVTVSS
VL: QSALTQPASVSGSPGQSITISCTATSSDVGDYNYVSWYQQHPGKAPKLMIFEVSDRPSGISNRFSGSKSGNTASLTISGLQAEDEADYYCSSYTTSSAVFGGGTKLTVL
B3: BD55–5840 (antibody, V domains shown)
VH: VQLAQSGSELRKPGASVKVSCDTSGHSFTSNAIHWVRQAPGQGLEWMGWINTDTGTPTYAQGFTGRFVFSLDTSARTAYLQISSLKADDTAVFYCARERDYSDYFFDYWGQGTLVTVSS
VL: EVVMTQSPASLSVSPGERATLSCRARASLGISTDLAWYQQRPGQAPRLLIYGASTRATGIPARFSGSGSGTEFTLTISSLQSEDSAVYYCQQYSNWPLTFGGGTKVEIK
B4: REGN10987 (antibody, V domains shown)
VH: QVQLVESGGGVVQPGRSLRLSCAASGFTFSNYAMYWVRQAPGKGLEWVAVISYDGSNKYYADSVKGRFTISRDNSKNTLYLQMNSLRTEDTAVYYCASGSDYGDYLLVYWGQGTLVTVSS
VL: QSALTQPASVSGSPGQSITISCTGTSSDVGGYNYVSWYQQHPGKAPKLMIYDVSKRPSGVSNRFSGSKSGNTASLTISGLQSEDEADYYCNSLTSISTWVFGGGTKLTVL
B5: Inverse folding design from the LY-CoV1404 starting point (Table 5, design row 2, the 5th table, row 13) (antibody, V domains shown)
VH: B2 VH
VL: B2 VL with D31I, S97A
B6: Inverse folding design from the LY-CoV1404 starting point (Table 5, design row 1, the 5th table, row 12) (antibody, V domains shown)
VH: B2 VH with I31T
VL: B2 VL with D31N, T95S, A98V
B7: Inverse folding design from the DXP-604 starting point (Table 5, design row 1, the 5th table, row 4) (antibody, V domains shown)
VH: EVQLVESGGGLIQPGGSLRLSCAASGIIVSRNYMTWVRQAPGKGLEWVSVIYSGGSTFYADSVKGRFTISRDNSKNTLYLQMSSLRAEDTAVYYCARDLGPYGMDVWGQGTTVTVSS
VL: DIQLTQSPSFLSASVGDRVTITCRASQGISSDLAWYQQKPGKAPNLLIYAASTLQSGVPSRFSGSGSGTEFTLTISSLQPEDFATYYCQQLMDTLYTFGQGTKLEIK
B8: Inverse folding design from the DXP-604 starting point (Table 5, design row 3, the 5th table, row 6) (antibody, V domains shown)
VH: B7 VH
VL: B7 VL with M92N, T94L
B9: Inverse folding design from the DXP-604 starting point (Table 5, design row 4, the 5th table, row 7) (antibody, V domains shown)
VH: B7 VH with S56T
VL: B7 VL with S30G, M92N, D93S, T94D
B10: Inverse folding design from the DXP-604 starting point (Table 5, design row 2, the 5th table, row 5) (antibody, V domains shown)
VH: B7 VH with S56T, G100A, P101V
VL: B7 VL with S30G, M92N, D93S, T94D
B11: Inverse folding design from the DXP-604 starting point (Table 5, design row 5, the 5th table, row 8) (antibody, V domains shown)
VH: B7 VH with S53P, P101V
VL: B7 VL with M92N, T94Y
B12: Inverse folding design from the DXP-604 starting point (Table 5, design row 6, the 5th table, row 9) (antibody, V domains shown)
VH: B7 VH
VL: B7 VL with S30G, M92N, D93S, T94D
B13: Inverse folding design from the DXP-604 starting point (Table 5, design row 7, the 5th table, row 10) (antibody, V domains shown)
VH: B7 VH
VL: B7 VL with M92N, D93S, T94D

target: T1, SARS-CoV-2 Spike RBD, original (Wuhan) strain (SARS-CoV-2, original Wuhan strain, UniProt P0DTC2); assay: SPR

| Binder | pKD |
| --- | --- |
| B1 | 10.3 -log10(KD) |
| B2 | 9.01 -log10(KD) |
| B3 | 10.1 -log10(KD) |
| B4 | 7.84 -log10(KD) |

target: T1, SARS-CoV-2 Spike RBD, original (Wuhan) …; assay: SPR; remark: another data set of the same source

| Binder | pKD |
| --- | --- |
| B5 | 9.48 -log10(KD) |
| B6 | 9.57 -log10(KD) |
| B7 | 10 -log10(KD) |
| B8 | 9.38 -log10(KD) |
| B9 | 9.53 -log10(KD) |
| B10 | 10.2 -log10(KD) |
| B11 | 10.8 -log10(KD) |
| B12 | 10 -log10(KD) |
| B13 | 10.6 -log10(KD) |

target: SARS-CoV-2 Spike RBD, XBB.1.5 strain (SARS-CoV-2, Omicron XBB.1.5, strain); assay: SPR

| Binder | pKD |
| --- | --- |
| B7 | 6.33 -log10(KD) |
| B8 | 6.01 -log10(KD) |
| B9 | 6.35 -log10(KD) |
| B10 | 6.15 -log10(KD) |
| B11 | 6.33 -log10(KD) |
| B12 | 6.28 -log10(KD) |
| B13 | 6.07 -log10(KD) |
